Laboratory results reported in publication PMC10018365, “Cryo-EM structure of the fully assembled Elongator complex” (Nucleic Acids Research, 2023).

T1: Saccharomyces cerevisiae Elp1 (Saccharomyces cerevisiae, UniProt Q06706 1-1349)
T1 construct: Elp1, S. cerevisiae, full-length ORF; also called ScElp1; source: S. cerevisiae DS1-2b, overexpressed, purified within ScElongator
T1 sequence (looked up): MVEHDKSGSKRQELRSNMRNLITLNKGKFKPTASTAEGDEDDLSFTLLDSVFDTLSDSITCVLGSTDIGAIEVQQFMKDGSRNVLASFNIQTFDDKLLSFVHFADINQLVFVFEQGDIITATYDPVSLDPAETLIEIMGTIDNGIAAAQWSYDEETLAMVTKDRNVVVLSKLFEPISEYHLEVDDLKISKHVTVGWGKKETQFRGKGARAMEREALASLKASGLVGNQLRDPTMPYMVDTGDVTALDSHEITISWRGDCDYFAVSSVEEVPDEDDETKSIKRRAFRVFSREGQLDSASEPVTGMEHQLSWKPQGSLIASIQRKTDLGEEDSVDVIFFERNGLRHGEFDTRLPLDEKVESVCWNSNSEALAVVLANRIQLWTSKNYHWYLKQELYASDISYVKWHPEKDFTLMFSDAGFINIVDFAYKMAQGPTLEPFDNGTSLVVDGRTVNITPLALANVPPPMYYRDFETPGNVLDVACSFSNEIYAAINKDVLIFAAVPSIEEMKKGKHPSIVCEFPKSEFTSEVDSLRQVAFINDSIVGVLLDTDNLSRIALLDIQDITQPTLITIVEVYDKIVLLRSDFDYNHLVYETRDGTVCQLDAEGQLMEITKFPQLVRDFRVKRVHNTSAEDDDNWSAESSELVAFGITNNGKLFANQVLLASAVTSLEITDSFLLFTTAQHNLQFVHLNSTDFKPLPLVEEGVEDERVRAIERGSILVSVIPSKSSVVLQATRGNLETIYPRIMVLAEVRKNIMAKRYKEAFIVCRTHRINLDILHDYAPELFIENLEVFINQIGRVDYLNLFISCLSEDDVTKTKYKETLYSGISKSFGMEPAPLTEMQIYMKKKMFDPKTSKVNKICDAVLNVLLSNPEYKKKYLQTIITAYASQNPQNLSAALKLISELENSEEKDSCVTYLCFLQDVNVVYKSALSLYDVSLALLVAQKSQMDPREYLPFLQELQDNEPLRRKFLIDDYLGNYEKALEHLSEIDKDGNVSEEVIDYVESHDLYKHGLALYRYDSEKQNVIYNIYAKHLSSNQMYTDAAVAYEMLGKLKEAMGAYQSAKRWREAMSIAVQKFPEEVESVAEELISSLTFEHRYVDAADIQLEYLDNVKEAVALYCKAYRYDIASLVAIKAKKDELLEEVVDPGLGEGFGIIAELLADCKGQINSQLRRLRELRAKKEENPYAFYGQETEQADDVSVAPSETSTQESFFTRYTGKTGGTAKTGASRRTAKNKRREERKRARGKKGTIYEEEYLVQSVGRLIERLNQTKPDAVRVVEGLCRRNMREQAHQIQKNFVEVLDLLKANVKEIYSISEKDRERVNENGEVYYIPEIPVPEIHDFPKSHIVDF

T2: Saccharomyces cerevisiae Elp3 (Saccharomyces cerevisiae, UniProt Q02908 1-557)
T2 construct: Elp3, S. cerevisiae, full-length ORF; also called ScElp3; source: S. cerevisiae DS1-2b, overexpressed, purified within ScElongator; not shown: Twin-Strep-tag, C-terminal, kept
T2 sequence (looked up): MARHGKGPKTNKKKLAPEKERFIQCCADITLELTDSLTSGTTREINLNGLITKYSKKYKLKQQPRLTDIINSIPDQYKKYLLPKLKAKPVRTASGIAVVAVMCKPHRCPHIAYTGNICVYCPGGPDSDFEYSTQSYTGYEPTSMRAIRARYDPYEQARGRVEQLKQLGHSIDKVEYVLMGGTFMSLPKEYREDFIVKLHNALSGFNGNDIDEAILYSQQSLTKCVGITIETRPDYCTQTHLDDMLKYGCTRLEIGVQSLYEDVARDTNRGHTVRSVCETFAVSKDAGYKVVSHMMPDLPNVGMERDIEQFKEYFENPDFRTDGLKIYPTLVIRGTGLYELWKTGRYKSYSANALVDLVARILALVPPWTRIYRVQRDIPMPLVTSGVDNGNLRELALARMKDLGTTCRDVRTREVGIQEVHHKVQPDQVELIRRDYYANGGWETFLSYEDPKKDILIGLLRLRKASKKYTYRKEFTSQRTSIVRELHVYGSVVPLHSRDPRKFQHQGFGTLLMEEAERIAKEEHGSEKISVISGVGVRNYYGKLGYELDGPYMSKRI

B1: Saccharomyces cerevisiae Elp5 (natural protein, UniProt P38874 1-309, looked up)
chain: MASSSHNPVILLKRILSLTESSPFILCLDSIAQTSYKLIQEFVHQSKSKGNEYPIVYISFETVNKPSYCTQFIDATQMDFVHLVKQIISYLPAATATQAKKHMVIIDSLNYISTEYITRFLSEIASPHCTMVATYHKDIKDENRTVIPDWNNNYPDKLTLLQFMATTIVDIDVVLTGTLDTEEVSELLNEFRIPRGLNNDIFQLRLVNKRKSGRSLEYDFIVNSNTHEYELLSTTKQEEESSSNGLETPEMLQGLTTFNLGTSNKQKLAKDQVALPFLEAQSFGQGGAIVYEYEKDDDYDEEDPYEDPF
notes: Elp5, S. cerevisiae, full-length ORF; also called ScElp5; source: S. cerevisiae DS1-2b, overexpressed, purified within ScElongator
B2: Saccharomyces cerevisiae Elp4 (natural protein, UniProt Q02884 1-456, looked up)
chain: MSFRKRGEILNDRGSGLRGPLLRGPPRTSSTPLRTGNRRAPGNVPLSDTTARLKKLNIADESKTKMGLDSSHVGVRPSPATSQPTTSTGSADLDSILGHMGLPLGNSVLVEEQSTTEFHSILGKLFAAQGIVHNRISDSSADKTRNGDTHVIVLSLNQMFAKELPGIYKGSRKQMKKNLISEEESKVTVQNLNETQRSTPSRYKDLKIAWKYKLADEKRLGSPDRDDIQQNSEYKDYNHQFDITTRLMPAPIASELTFIAPTQPVSTILSQIEQTIKRNDKKLIRIVIPSLLHPAMYPPKMFESSEIIGLMHGVRSLVKKYYERVVLFASISIDIITPPLLVLLRNMFDSVINLEPFNQEMTEFLERVYKSQPGKIQHGLVHILKLPVFTDRGEMRVLKSEWAFKNGRKKFEIEQWGIPVDDAEGSAASEQSHSHSHSDEISHNIPAKKTKISLDY
notes: Elp4, S. cerevisiae, full-length ORF; also called ScElp4; source: S. cerevisiae DS1-2b, overexpressed, purified within ScElongator

Tests used:
Details in all cases: both partners purified
[1] = target: T3, Saccharomyces cerevisiae Elp123 subcomplex (Saccharomyces cerevisiae, UniProt Q06706 1-1349; P42935 1-788; Q02908 1-557); assay: cryo-EM structure; ScElongator purified from overexpressing yeast, native sample (4.35 Å) and BS3-stabilised sample (6.6 Å; two-lobed map 17.2 Å); sample buffer 20 mM HEPES pH 7.5, 100 mM NaCl, 3 mM DTT
T3 construct: Elp1, S. cerevisiae, full-length ORF; Elp2, S. cerevisiae, full-length ORF; Elp3, S. cerevisiae, full-length ORF; also called ScElp123; yeast Elp123; not shown: Twin-Strep-tag, C-terminal, kept; copies: 2 + 2 + 2
T3 sequence (P42935 whole entry, one chain of several): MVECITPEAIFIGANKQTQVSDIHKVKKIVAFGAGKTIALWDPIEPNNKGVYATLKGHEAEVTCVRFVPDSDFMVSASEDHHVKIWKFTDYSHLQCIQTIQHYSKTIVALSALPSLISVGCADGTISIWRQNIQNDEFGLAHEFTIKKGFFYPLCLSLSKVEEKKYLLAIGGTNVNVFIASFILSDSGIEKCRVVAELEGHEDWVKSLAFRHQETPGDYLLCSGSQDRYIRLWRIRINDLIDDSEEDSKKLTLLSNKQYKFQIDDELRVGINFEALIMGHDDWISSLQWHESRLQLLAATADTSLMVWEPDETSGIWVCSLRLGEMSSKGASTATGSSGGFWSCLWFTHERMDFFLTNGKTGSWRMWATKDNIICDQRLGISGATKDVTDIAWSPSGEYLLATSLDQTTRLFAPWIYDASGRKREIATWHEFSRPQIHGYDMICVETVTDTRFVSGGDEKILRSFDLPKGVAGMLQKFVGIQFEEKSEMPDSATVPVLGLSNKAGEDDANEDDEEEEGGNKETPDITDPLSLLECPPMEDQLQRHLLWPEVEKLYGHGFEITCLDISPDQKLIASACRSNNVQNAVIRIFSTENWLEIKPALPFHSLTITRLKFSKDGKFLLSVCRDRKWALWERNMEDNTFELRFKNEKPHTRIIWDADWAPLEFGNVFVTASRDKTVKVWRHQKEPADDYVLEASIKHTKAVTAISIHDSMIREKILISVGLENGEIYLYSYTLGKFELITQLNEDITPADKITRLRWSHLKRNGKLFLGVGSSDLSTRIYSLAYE

[2] = target: B2; assay: cryo-EM structure; free full-length ScElp456 rings found in one data set, 3.7 Å
[3] = target: T1, Saccharomyces cerevisiae Elp1; assay: cryo-EM structure; ScElongator purified from overexpressing yeast, native sample (4.35 Å) and BS3-stabilised sample (6.6 Å; two-lobed map 17.2 Å); sample buffer 20 mM HEPES pH 7.5, 100 mM NaCl, 3 mM DTT
[4] = target: B1; assay: cryo-EM structure; free full-length ScElp456 rings found in one data set, 3.7 Å
[5] = target: T2, Saccharomyces cerevisiae Elp3; assay: cryo-EM structure; ScElongator purified from overexpressing yeast, native sample (4.35 Å) and BS3-stabilised sample (6.6 Å; two-lobed map 17.2 Å); sample buffer 20 mM HEPES pH 7.5, 100 mM NaCl, 3 mM DTT

Row | Binder | binding result [1] | binding result [2] | binding result [3] | binding result [4] | binding result [5]
1 | Saccharomyces cerevisiae Elp456 subcomplex (hetero-hexameric ring) (complex, Elp4, S. cerevisiae, full-length ORF; Elp5, S. cerevisiae, full-length ORF; Elp6, S. cerevisiae, full-length ORF; Symmetric dimer of trimers; also called ScElp456; yeast Elp456; source: S. cerevisiae DS1-2b, overexpressed, purified with ScElongator (IgG Sepharose with TEV elution, StrepTrap, Superose 6); free rings seen in one data set; not shown: protein A (Staphylococcus aureus), C-terminal, …) chain 1: MSFRKRGEILNDRGSGLRGPLLRGPPRTSSTPLRTGNRRAPGNVPLSDTTARLKKLNIADESKTKMGLDSSHVGVRPSPATSQPTTSTGSADLDSILGHMGLPLGNSVLVEEQSTTEFHSILGKLFAAQGIVHNRISDSSADKTRNGDTHVIVLSLNQMFAKELPGIYKGSRKQMKKNLISEEESKVTVQNLNETQRSTPSRYKDLKIAWKYKLADEKRLGSPDRDDIQQNSEYKDYNHQFDITTRLMPAPIASELTFIAPTQPVSTILSQIEQTIKRNDKKLIRIVIPSLLHPAMYPPKMFESSEIIGLMHGVRSLVKKYYERVVLFASISIDIITPPLLVLLRNMFDSVINLEPFNQEMTEFLERVYKSQPGKIQHGLVHILKLPVFTDRGEMRVLKSEWAFKNGRKKFEIEQWGIPVDDAEGSAASEQSHSHSHSDEISHNIPAKKTKISLDY chain 2: MASSSHNPVILLKRILSLTESSPFILCLDSIAQTSYKLIQEFVHQSKSKGNEYPIVYISFETVNKPSYCTQFIDATQMDFVHLVKQIISYLPAATATQAKKHMVIIDSLNYISTEYITRFLSEIASPHCTMVATYHKDIKDENRTVIPDWNNNYPDKLTLLQFMATTIVDIDVVLTGTLDTEEVSELLNEFRIPRGLNNDIFQLRLVNKRKSGRSLEYDFIVNSNTHEYELLSTTKQEEESSSNGLETPEMLQGLTTFNLGTSNKQKLAKDQVALPFLEAQSFGQGGAIVYEYEKDDDYDEEDPYEDPF chain 3: MGSVQRQDLVLFSDQSVLPAHFFQDSNSHNLFFITHQSCTQPLWMINALVETHVLGSPSSLNESSSSMLPSSTRSHAVLASFIHEQNYFTNSLNKLKIPSNNYNVLDFLSDFIVNNIHNKPRDKILSDVLAKFSAAIQNNPTDTIVIIEQPELLLSLVSGLTCSELNNKFITPLLRQCKVLIIVSNSDIFNIDEYDASVHSSNLQNFYKSSFIKSMINLNLNPLKTGFAKDVTGSLHVCRGGAPIATSNTSLHVVENEYLYLNEKESTKLFYR | binds |  |  |  | 
2 | B1 |  | binds | binds |  | 
3 | Saccharomyces cerevisiae Elp6 (natural protein, UniProt Q04868 1-273, looked up, Elp6, S. cerevisiae, full-length ORF; also called ScElp6; source: S. cerevisiae DS1-2b, overexpressed, purified within ScElongator; not shown: protein A (Staphylococcus aureus), C-terminal, cleaved) MGSVQRQDLVLFSDQSVLPAHFFQDSNSHNLFFITHQSCTQPLWMINALVETHVLGSPSSLNESSSSMLPSSTRSHAVLASFIHEQNYFTNSLNKLKIPSNNYNVLDFLSDFIVNNIHNKPRDKILSDVLAKFSAAIQNNPTDTIVIIEQPELLLSLVSGLTCSELNNKFITPLLRQCKVLIIVSNSDIFNIDEYDASVHSSNLQNFYKSSFIKSMINLNLNPLKTGFAKDVTGSLHVCRGGAPIATSNTSLHVVENEYLYLNEKESTKLFYR |  | binds |  | binds | binds
4 | B2 |  |  | binds |  | binds
